Measurements from patent US20190248902A1 (published 2019).

T1: recombinant, soluble human ASGR-1 (human, UniProt P07306 62-291)
T1 construct: biotinylated in the binning assay; also called soluble huASGR-1; Soluble ASGR-1 (Amgen)
T1 sequence: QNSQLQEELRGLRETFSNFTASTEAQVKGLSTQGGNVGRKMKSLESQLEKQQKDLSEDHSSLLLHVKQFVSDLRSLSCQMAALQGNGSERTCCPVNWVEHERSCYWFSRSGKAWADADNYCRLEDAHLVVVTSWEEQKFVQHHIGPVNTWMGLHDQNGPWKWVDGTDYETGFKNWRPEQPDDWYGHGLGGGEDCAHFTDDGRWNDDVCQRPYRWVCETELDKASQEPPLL


Tests used:
[1] = target: T1, recombinant, soluble human ASGR-1; experiment: Octet BLI dissociation, pH 7.4 minus calcium
Protocol: (§1) The relative dissociation of ASGR-1 from antibodies was measured using a label-free assay on an OctetHTX instrument (Fortebio). Antibody samples were captured on anti-HuFc kinetic biosensors (ForteBio cat #18-5064) at 5 ug/mL in assay buffer (10 mM Tris, 0.1% Triton, 150 mM NaCl, 1 mg/mL BSA, 1 mM CaCl2, pH7.4) for three minutes. A one minute baseline stabilization step was performed in assay buffer. Soluble ASGR-1 (Amgen) at 6 ug/ml in assay buffer was added and association to the antibodies was monitored for two minutes. Subsequent dissociation of ASGR-1 from the antibodies was performed by incubating the ASGR-1-mAb complexes for 10 minutes under each of the following conditions:
(§2) The binding signal at the end of the 2 minute association phase for each dissociation experiment was set to 100% and used to represent the maximal level of ASGR-1 binding. After 1 minute of dissociation, the percentage of ASGR-1 remaining bound was calculated. The lower the percent remaining at a given time point indicates increased levels of dissociation in response to the test conditions (ie. different pH and/or calcium concentrations). The change in the percentage of ASGR-1 remaining bound in response to each test condition relative to the percent remaining in the control conditions (ie. pH 7.4+calcium) was determined. Cut-offs for an antibody to be categorized as being sensitive to a particular condition were set to >10% (ie. if >10% of the ASGR-1 dissociates from the antibody under a particular test condition compared to control condition, it was deemed sensitive to that condition). The analysis was done using the 1 minute dissociation time point (except for mAb 149A1 which was binned based on the 4 minute dissociation time point). Using this analysis, the ASGR-1-binding, receptor-ligand blocking antibodies were separated into groups according to their dissociation profiles in response to pH and calcium (Table 7.3). Antibodies belonging to each category were observed.

[2] = target: T1, recombinant, soluble human ASGR-1; experiment: Octet BLI dissociation, pH 5.6 plus calcium
Protocol: as §1, §2

[3] = target: T1, recombinant, soluble human ASGR-1; experiment: Octet BLI dissociation, pH 5.6 minus calcium
Protocol: as §1, §2

% Change Compared to pH 7.4 + Calcium [1]	% Change Compared to pH 7.4 + Calcium [2]	% Change Compared to pH 7.4 + Calcium [3]	Binder
40%	35%		22G5 (antibody, V domains shown, hybridoma mAb) VH: EVQLLESGGGLVQPGGSLRLSCAASGFTFSSYAMNWVRQAPGMGLEWVSVISRSGGYTYYADSVKGRFTISRDNSKNTLYLQMNSLRAEDTAVYYCASRLAVAGSEAFDIWGQGTLVTVSS VL: DIQMTQSPSSLSASVGDRVTITCRASQNISSYLNWYQQKQGKAPKLLIYAASSLQNGVPSRFSGRGSGTDFTLTISSLQPEDFATYYCQQSYRTPLFTFGPGTKVDFK
48%	29%	49%	64E2 (antibody, V domains shown, hybridoma mAb) VH: not shown VL: DIQMTQSPSSVSASVGDRVTITCRASQGISRWLAWYQQKPGKAPKLLIYAASSLQSGVPSRFSGSGSGTDFTLTISSLQPEDFATYYCQQANSFPFTFGPGTKVDIK
6%	0%	9%	50D4 (antibody, V domains shown, hybridoma mAb) VH: QVQLVQSGAEVKKPGASVKVSCKASGYTFTGYHMHWVRQAPGQGLEWMGWINPNNNATNYAQSFQGRVTLTRDTSISTAYMELSRLRSDDTAVYYCARDGTSSFDFWGQGTLVTVSS VL: DIQMTQSPSSVSASVGDRLTITCRASQGISRWLAWYQQKPGKAPKVLIYAASTLQSGVPSRFSGSGSGTDFTLTISSLQPEDFATYYCQQANSFPFTFGPGTKVDIR
7%	4%	15%	10G6 (antibody, V domains shown, hybridoma mAb) VH: QVQLVQSGAEVKKPGASVKVSCKASGYTFTAYHMHWVRQAPGQGLEWMGWINPNNNGTNYAQKFQGRVTMTRDTSISTAYMELSRLRSDDTAVYYCGRDVTSSFDYWGQGTLVTVSS VL: DIQMTQSPSSVSASVGDRVTITCRASQGISKWLAWYQQKPGKAPKILIYAAYSLQSGVPARFSGSGSGTDFTLTIRSLQPEDFATYYCQQANSFPFTFGPGTKVDIK
15%	1%	13%	52G11 (antibody, V domains shown, hybridoma mAb) VH: QVQLVQSGAEVKKPGASVKVSCKASGYTFTGYYLHWVRQAPGQGLEWMGWINPNRNGTNYAQKFQGRVTMTRDTSISTAFMELSRLRSDDTAVYYCARDGTSSFDYWGQGTLVTVSS VL: DIQMTQSPSSVSASVGDRVTITCRASQGISKWLAWYQQKPGKAPKLLLYAASSLQSGVPSRFSASGSGTDFTLTISSLQPEDFATYYCQQANSFPFTFGPGTKVDVK
17%	12%	29%	70D1 (antibody, V domains shown, hybridoma mAb) VH: QVQLVQSGAEVKKPGASVKVSCKASGYTFTGYHMHWVRQAPGQGLEWMGWINPNSNATNYAQKFQGRVTMTRDTSISTAYMELSRLRSDDTAVYYCARDSISSWDYWGQGTLVTVSS VL: DIQMTQSPSSVSASVGDRVTITCRASQGVSRWLAWYQQKPGKAPKLLIYAASSLQSGVPSRFSGSGSGTDFTVTISSLQPEDFATYYCQQANSFPFTFGPGTKVDIK
13%	13%	29%	57A7 (antibody, V domains shown, hybridoma mAb) VH: QVQLVQSGAEVKKPGASVKVSCKASGYTFTGYHIHWVRQAPGQDLEWMGWINPNNNGTNYAQKFQGRVTMTRDTSISTAYMELSRLRSDDTAVYYCARDGRSGFDYWGQGTLVTVSS VL: DIQMTQSPSSVSASVGDRVTITCRASQGISRWLAWYQQKPGKAPNLLIYAASNLQSGVPSRFSGSGSGTDFTLTISSLQPEDFATYYCQQANSFPFTFGPGTKVDIK
15%	1%	13%	53F2 (antibody, V domains shown, hybridoma mAb) VH: QVQLVQSGAEVKKPGASVKVSCKASGYTFTGYYLHWVRQAPGQGLEWMGWINPNRNGTNYAQNFQGRVTMTRDTSISTAYMELSRLKSDDTAVYYCARDGTSSFDYWGQGTLVTVSS VL: DIQMTQSPSSVSASVGDRVTITCRASQGISKWLAWYQQKPGKAPNLLLYAASSLQSGVPSKFSGSGSGTDFTLTISSLQPEDFATYYCQQANSFPFTFGPGTKVDVK
9%	3%	13%	53F7 (antibody, V domains shown, hybridoma mAb) VH: QVQLVQSGAEVKKPGASVKVSCKASGYTFTGYHMHWVRQAPGQGLEWMGWINPNNNGTNYAQKFQGRVTMTRDTSISTAYMELNRLTSDDTAVYYCARDGTSSFDYWGQGTLVTVSS VL: DIQMSQSPSSVSASVGDRVTITCRASQGISRWLAWYQQKPGKAPNLLIYAASSLQSGVPSRFSGSGSGTDFTLTISSLQPEDFAIYYCQQANSFPFTFGPGTKVDIK
5%	-1%	2%	4H6 (antibody, V domains shown, hybridoma mAb) VH: QVQLVQSGAEVKKPGASVKVSCKASGYTFTDYYLHWVRQAPGQGLEWMGWIHPNSGGTNYAQKFQGRVTMTRDTSISTAYMGLSSLRSDDTAVYYCARDGTSSFDYWGQGTLVTVSS VL: DIQMTQSPSSVSASVGDRVTITCRASQGISRWLAWYQQKPGKAPKLLIYGASSLQSGVPSRFSGSGSGTDFTLTISSLQPEDFAIYYCQQANSFPFTFGPGTKVDIK
4%	-2%	8%	49F10 (antibody, V domains shown, hybridoma mAb) VH: QVQLVQSGAEVKKPGASVKVSCKASGYTFTGYHMHWVRQAPGQGLEWMGWINPNNNATNYAQNFQGRVTLTRDTSISTAYMELSRLRSDDTAVYYCARDGTSSFDFWGQGTLVTVSS VL: DIQMTQSPSSVSASVGDRVTITCRASQGISRWLAWYQQKPGKAPKVLIYAASTLQSGVPSRFSGSGSGTDFTLTISSLQPEDFATYYCQQANSFPFTFGPGTKVDIK
1%	-6%	-1%	56E5 (antibody, V domains shown, hybridoma mAb) VH: QVQLVQSGAEVKKPGASVKVSCQASGYTFTGYHMHWVRQAPGQGLEWMGWINPNNNATNYAQKFQGRVTMTRDTSISTAYMELRRLRSDDTAVYHCARDGTSSFDYWGQGTLVTVSS VL: DIQMTQSPSSVSASVGDRVTITCRASQGIRKWLAWYQQKPGKAPKLLIYAASSLQSGVPSRFSGSGSGTDFTLTISSLQPEDFATYYCQQANSFPFTFGPGTKVDIK
3%	-5%	2%	51E9 (antibody, V domains shown, hybridoma mAb) VH: QVQLVQSGAEVKKPGASVKVSCKASRYTFTGYHIHWVRQAPGQGLEWMGWINPNTNGTQYAQKFQGRVTMTRDTSISTAYMELSRLRSDDTAVYYCARDGTSSFDYWGQGTLVTVSS VL: DIQMTQSPSSVSASVGDRVTITCRASQGISSWLAWYQQKPGKAPKLLIYVASSLQSGVPSRFSGSGSGTDFTLTIRSLQPEDFATYYCQQAKSFPFTFGPGTKVDIK
5%	-2%	4%	55B1 (antibody, V domains shown, hybridoma mAb) VH: QVQLVQSGAEVKKPGASVKVSCKASGYTFTGYYFHWVRQAPGQGLEWMGWIHPNNNATNYAQKFQGRVTMTRDTSISTAYMELSRLRSDDTAVYYCAKDGRSSFDYWGQGTLVTVSS VL: DIQMTQSPSSVSASVGDRVTITCRASQVISRWLAWYQQKPGKAPNLLIYAASSLQSGVPSRFSGSGSGTDFTLTISSLQPEDFATYYCQQANSFPFTFGPGTKVDLK
7%	19%	33%	148E10 (antibody, V domains shown, hybridoma mAb) VH: QVQLVESGGGVVQPGRSLRLSCAASGFTFSSYGMHWVRQAPGKGLEWVAVIWFDGSNKYYVDSVKDRFTISRDNSKNTLYLQMNSLRAEDTAVYYCARDRVEGSGTPYYYYGMDVWGQGTTVTVSS VL: SYELTQPPSVSVSPGQTASITCSGDKLGNKYVCWYQQRPGHAAVLIIYQDSKRPSGIPERFSGSNSGNTATLTISGTQAMDEADYFCQAWDRNTYVVFGGGTKLTVL
